The source of these data is PMC3056899.

Series [1] concerns the target T1, CFIm25 delN21 (crystal);CFIm68 N13-235 (crystal) (human;human, UniProt O43809;Q16630 21-227;13-235, |). Description: X-ray crystallography.
Series [2] deals with T1, CFIm25 delN21 (crystal);CFIm68 N13-235 …. Description: X-ray crystallography. The source holds these as a separate data set.
The target of another series is CFIm25;CFIm68 RRM (human;human, UniProt O43809;Q16630 1-227;13-235, |). In words: EMSA.
For another series, the target named is CFIm25 (human, UniProt O43809 1-227). Description: EMSA.
Sequence of CFIm25 (O43809 whole entry): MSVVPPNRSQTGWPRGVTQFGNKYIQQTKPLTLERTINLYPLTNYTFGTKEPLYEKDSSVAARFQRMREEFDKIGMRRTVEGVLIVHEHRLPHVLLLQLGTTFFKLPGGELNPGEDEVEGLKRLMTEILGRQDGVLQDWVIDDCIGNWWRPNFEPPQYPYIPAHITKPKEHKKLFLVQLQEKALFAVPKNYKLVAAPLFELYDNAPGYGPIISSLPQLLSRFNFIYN

Where two headings read alike, the source gives them in different places.

T1 sequence (O43809 21-227, chain 1 of 2): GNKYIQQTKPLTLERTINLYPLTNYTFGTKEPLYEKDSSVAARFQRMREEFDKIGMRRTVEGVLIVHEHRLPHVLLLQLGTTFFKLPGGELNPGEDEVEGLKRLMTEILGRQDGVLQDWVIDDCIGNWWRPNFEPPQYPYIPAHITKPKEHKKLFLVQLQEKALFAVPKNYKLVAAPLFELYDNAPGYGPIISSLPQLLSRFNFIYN
T1 sequence (Q16630 13-235, chain 2 of 2): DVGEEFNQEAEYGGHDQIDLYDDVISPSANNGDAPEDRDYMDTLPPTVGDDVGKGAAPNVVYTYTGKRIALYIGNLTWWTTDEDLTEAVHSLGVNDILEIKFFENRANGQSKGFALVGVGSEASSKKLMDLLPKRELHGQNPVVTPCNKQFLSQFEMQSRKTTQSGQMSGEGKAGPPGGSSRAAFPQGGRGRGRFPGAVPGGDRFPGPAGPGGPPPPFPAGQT
Sequence of CFIm25;CFIm68 RRM (O43809 whole entry, chain 1 of 2): as the sequence (O43809 whole entry) above
Sequence of CFIm25;CFIm68 RRM (Q16630 13-235, chain 2 of 2): as the sequence (Q16630 13-235, chain 2 of 2) above

With UUGUAU (ssRNA) [6-mer RNA], the binding result in series [1] is “binds”.

Take UAUUUUGUA (ssRNA) [9-mer RNA]: the binding result in series [2] is reported as “binds”.

On to GGGUGUAAAACAGAUGAUGUAU (ssRNA) [PAPOLA upstream element as printed], for which the Kd in the series with CFIm25;CFIm68 RRM worked out at 222 nM; with CFIm25, 645 nM.
